Test results published in patent publication US20220259593A1, “CONTROL OF MAMMALIAN GENE DOSAGE USING CRISPR” (The Regents of the University of California, priority 2019, published 2022).

Tested on: K562 CRISPRi cells
Assay: Constant region variant library pooled growth screen, K562
Format: cell-based, human
Conditions: sgRNA constant region variants
From the text: We calculated relative activities for each targeting sequence:constant region pair by normalizing its phenotype to that of the targeting sequence paired with the unmodified constant region, identifying 409 constant region variants that on average conferred intermediate activity (0.1-0.9, FIG. 5B). Ten variants selected for individual evaluation also mediated intermediate levels of mRNA knockdown (FIG. 6B). Mapping the activities of constant region variants with single base substitutions onto the structure recapitulated known relationships between constant region structure and function (FIG. 5C).
The sequences in the library of modified constant regions were derived from the sgRNA (F+E) optimized sequence (23) modified to include a BlpI site (15). Each modified constant region was paired with 36 sgRNA targeting sequences (3 sgRNAs targeting each of 10 essential genes and six non-targeting negative control sgRNAs). The cloning strategy (described below) allowed the mutation of most positions in the sgRNA constant region. A variety of modifications were made, including substitutions of all single bases not in the BlpI restriction site (which is used for cloning), double substitutions including all substitutions at base-paired position pairs not before or in the BlpI site, and a variety of triple, quadruple, and sextuple substitutions, including base-pair-preserving substitutions at adjacent base-pairs.
The library was ordered and cloned in two parts. One part consisted of ˜100 modifications to the eight bases upstream of the BlpI restriction site. Constant region variants with mutations in this section were paired with each of the 36 targeting sequences, ordered as a pooled oligonucleotide library (Twist Biosciences), and cloned into pCRISPRia-v2 as described above. The second part consisted of ˜900 modifications to the 71 bases downstream of the BlpI restriction site. This part was cloned in two steps. First, all 36 targeting sequences were individually cloned into pCRISPRia-v2 as described above. The vectors were then pooled at an equimolar ratio and digested with BlpI (NEB) and XhoI (NEB). The modified constant region variants were ordered as a pooled oligonucleotide library (Twist Biosciences), PCR amplified with Phusion polymerase (NEB), digested with BlpI (NEB) and XhoI (NEB), and ligated into the digested vector pool, in a manner identical to previously published protocols and as described above, except for the different restriction enzymes.
Screens with the compact mismatched sgRNA library and the constant region library were conducted largely as described above, with smaller modifications during the screening procedure and an updated sequencing library preparation protocol. Briefly, the libraries were transduced in duplicate into K562 CRISPRi (both libraries) or HeLa CRISPRi cells (compact mismatched sgRNA library) as described above. K562 replicates were maintained separately in 0.15 to 0.3 L of RPMI-1640 in 0.3 L spinner flasks for the course of the screen. HeLa replicates were maintained in sets of ten 15-cm plates. Cells were selected with puromycin as described above (K562: 1 day of 0.75 μg/mL and 1 day of 0.85 μg/mL; HeLa: 2 days of 0.8 μg/mL and 1 day of 1 μg/mL). The remainder of the screen was carried out at >1000× library coverage (K562 compact mismatched sgRNA library: >2000×; HeLa compact mismatched sgRNA library: >1000×; K562 constant region library: >2000×). Multiple samples were harvested after 4 to 8 days of growth. For the drug screen, 10 μM lovastatin (ApexBio) or an equivalent volume of DMSO (vehicle) was added to flasks at t=0, and 3 days later cells were pelleted and re-suspended in fresh medium. Lovastatin (12 μM) or DMSO was again added after 5 and 9 days of growth, with media exchanges 3 days after drug supplementation. Multiple samples were harvested after 4 to 8 days for the K562 and HeLa growth screens. […]

[1] = activity relative to the un-modified constant region cr995
[2] = activity relative to the original, un-modified constant region cr995

Molecule | Mean relative activity [1] | Mean relative activity [2]
cr284 (nucleic acid, listed as DNA, chemistry not fully specified) guide: GTTTAAGAGCTAAGCTGGAAACAGCATAGCAAGTTTAAATAAGGCTAGTCCGTTATCAACTTGAGAAAGTGGCACCAAGTTGGTGCT | 0.9497 | –
cr612 (nucleic acid, listed as DNA, chemistry not fully specified) guide: GTTTAAGAGCTAAGCTGGATACAGCATAGCAAGTTTAAATAAGGCTAGTCCGTTATCAACTTGAAAAAGTGGCACCGAGTCGGTGCT | – | 1.064
cr371 (nucleic acid, listed as DNA, chemistry not fully specified) guide: GTTTAAGAGCTAAGCTGGAAACAGCATAGCAAGTTTAAATAAGGCTAGTCCGTCAGCAACTTGAAAAAGTGGCACCGACTCGGTGCT | 0.9355 | –
cr253 (nucleic acid, listed as DNA, chemistry not fully specified) guide: GTTTAAGAGCTAAGCTGGAAACAGCATAGCAAGTTTAAATAAGGCTAGTCCGTTATCAGCCTGAAAAGGCGGCACCTAGTAGGTGCT | 0.9384 | –
cr630 (nucleic acid, listed as DNA, chemistry not fully specified) guide: GTTTAAGAGCTAAGCTGGAAACAGCATAGCAAGTTTAAATAAGGCTAGTCCGTTGCCAACTTGAAAAAGTGGCACCGACTCGGTGCT | 0.9325 | –
cr953 (nucleic acid, listed as DNA, chemistry not fully specified) guide: GTTTAAGAGCTAAGCTGGAAACAGCATAGCAAGTTTAAATAAGGCTAGTCCGTTATCAACTTGAAAAAGTGGCACCGCGTCGGTGCT | 0.9337 | –
cr703 (nucleic acid, listed as DNA, chemistry not fully specified) guide: GTTTAAGAGCTAAGCTGGAAACAGCATAGCAAGTTTAAATAAGGCTAGTCCGTTATCAACTTGAGGAAGTGGCACCGAGTCGGTGCT | 0.9472 | –
cr576 (nucleic acid, listed as DNA, chemistry not fully specified) guide: GTTTAAGAGCTAAGCCGGAAACAGCATAGCAAGTTTAAATAAGGCTAGTCCGTTATCAACTTGAAAAAGTGGCACCGAGTCGGTGCT | 0.935 | –
cr231 (nucleic acid, listed as DNA, chemistry not fully specified) guide: GTTTAAGAGCTAAGCTGGAAACAGCATAGCAAGTTTAAATAAGGCTAGACCGTTATCAACTTGAGAAAGTGGCACCGAGTCGGTGCT | 0.9485 | –
cr291 (nucleic acid, listed as DNA, chemistry not fully specified) guide: GTTTAAGAGCTAAGCTGGAAACAGCATAGCAAGTTTAAATAAGGCTAGTCCGTTATCAACTTGAAAAAGTGCCATCGAGTCGATGGT | 0.9321 | –
cr719 (nucleic acid, listed as DNA, chemistry not fully specified) guide: GTTTAAGAGCTAAGCTGGAAACAGCATAGCAAGTTTAAATAAGGCTAGTCCGTTATCAACTTGAAAAAGTGGCACCGAGTCGGTGAT | 0.9381 | –
cr142 (nucleic acid, listed as DNA, chemistry not fully specified) guide: GTTTAAGAGCTAAGCTGGAAACAGCATAGCAAGTTTAAATAAGGCTAGTCCGTTATCAACTTGAAAAAGTGGCACCTAGTAGGTGCT | 0.9406 | –
cr822 (nucleic acid, listed as DNA, chemistry not fully specified) guide: GTTTAAGAGCTAAGCTGGAAACAGCATAGCAAGTTTAAATAAGGCTAGACCGTTATCAACTTGAACAAGTGGCACCGAGTCGGTGCT | 0.9333 | –
cr529 (nucleic acid, listed as DNA, chemistry not fully specified) guide: GTTTAAGAGCTAAGCTGGAAACAGCATAGCAAGTTTAAATAAGGCTAGTCCGTTATCAACTTGAAAAAGTGGCACTGAGTCAGTGCT | 0.9488 | –
cr285 (nucleic acid, listed as DNA, chemistry not fully specified) guide: GTTTAAGAGCTAAGCTGGAAAAAGCATAGCAAGTTTAAATAAGGCTAGTCCGTTATCAACTTGAAAAAGTGGCACCGAGTCGGTGCT | 0.9449 | –
cr908 (nucleic acid, listed as DNA, chemistry not fully specified) guide: GTTTAAGAGCTAAGCTGGAAACAGCATAGCAAGTTTAAATAAGGCTAGTCCGTTATCAACTTGAGAAAGTGGCATCGAGTCGATGCT | 0.9455 | –
cr116 (nucleic acid, listed as DNA, chemistry not fully specified) guide: GTTTAAGAGCTAAGCTGGAAACAGCATAGCAAGTTTAAATAAGGCTAGTCCGTTATCAACGTGAAAACGTGGCACCGAGTCGGTGCT | – | 1.064
cr421 (nucleic acid, listed as DNA, chemistry not fully specified) guide: GTTTAAGAGCTAAGCTGGAAACAGCATAGCAAGTTTAAATAAGGCTAGTCCGTTATCAACTTGAAAACGTGGCACCGAGTCGGTGCT | 0.9381 | –
cr693 (nucleic acid, listed as DNA, chemistry not fully specified) guide: GTTTAAGAGCTAAGCTGGAAACAGCATAGCAAGTTTAAATAAGGCTAGTCCGTTATCAACTTGAAAAAGTGGCTCCAAGTTGGAGCT | 0.9369 | –
cr823 (nucleic acid, listed as DNA, chemistry not fully specified) guide: GTTTAAGAGCTAAGCTGGAAACAGCATAGCAAGTTTAAATAAGGCTAGTCCGTTATCAACTAGAAATAGTGGCACTGAGTCAGTGCT | 0.936 | –
cr718 (nucleic acid, listed as DNA, chemistry not fully specified) guide: GTTTAAGAGCTAAGCTGGAAACAGCATAGCAAGTTTAAATAAGGCTAGTCCGTTATCATCTTGAAAAAGAGGCCCCGAGTCGGGGCT | 0.9447 | –
cr983 (nucleic acid, listed as DNA, chemistry not fully specified) guide: GTTTAAGAGCTAAGCTGGAAACAGCATAGCAAGTTTAAATAAGGCTAGTCCGTTATCAACTTGAAAAAGTGGTACCGAGTCGGTGCT | 0.9491 | –
cr553 (nucleic acid, listed as DNA, chemistry not fully specified) guide: GTTTAAGAGCTAAGCTGGAAACAGCATAGCAAGTTTAAATAAGGCTGGTCCGTTATCAACTTGATAAAGTGGCACCGAGTCGGTGCT | 0.9385 | –
cr546 (nucleic acid, listed as DNA, chemistry not fully specified) guide: GTTTAAGAGCTAAGCTGGAAACAGCATAGCAAGTTTAAATAAGGCTAGTCCGTTATCAAATTGAGAAATTGGCACCGAGTCGGTGCT | 0.9326 | –
